Test results reported in the nanobody polyreactivity screen of Harvey et al. (2022).

Test: yeast display, Sf9 membrane polyspecificity reagent, FACS + sequencing; frameworks hold sequencing errors
How it was run: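 Using colony PCR, genes from sorted yeast display clones were amplified, then sequenced on MiSeq at 2 × 250 and filtered by CDR length. The clones had been stained with 10% biotinylated, detergent-solubilized Sf9 membrane reagent for 1 hour at 4 °C and sorted by FACS into low and high (top ~1%) gates on anti-HA and streptavidin fluorescence. Polyreactivity labels come from the gate of origin.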

QVQLVESGGGLVQAGGSLRLSCAASGIIFTLYATGWYRQAPGKERELVAAISGSGGSTYYADSVKGRFTISRDNAKNTVYLQMNSLKPEDTAVYYCAARGVRGTGLDSRMYYWGQGTQVTVSS
polyreactivity (PSR sort gate): high polyreactivity

QVQLVESGGGLVQAGGSLRLSCAASGIIFTQNGMGVYRPAPGKERELVAAISWSAGGTYYADSVKGRFTISRDNAKNTVYLQMNSLIPEDTAVYYCNARVYNVFREFNSWGQGTQVTVSS
polyreactivity (PSR sort gate): low polyreactivity

QVQLVESGGGLVQAGGSLRLSCAASGIIFTSNTMGWYRQAPGKVREFVASINWNGSSTYADSVKGRFTISRDNAKYTVYLQMNSLKPEDTAVYSCNADYNRNSVQFSLYDYWGQGTQVTVSS
polyreactivity (PSR sort gate): low polyreactivity

QVQLVESGGGLVQAGGSLRLSCAASGIIFTTNAMGWYRQAPGKERELVATITSGGGTYYADSVKGRFTISRDNAKNTVYLQMNSLKPEDTAVYYCAATPGWGPWIFDHSYVDFDYWGQGTQVTVSS
polyreactivity (PSR sort gate): low polyreactivity

QVQLVESGGGLVQAGGSLRLSCAASGIIFTTNMGWYRQAPGKERELVATIRVNGGRTYYADSVKGRFTISRDNAQNTVYLQMNSLKPEDTAVYYCAARYSAGAQRYGYWGQGTQVTVSS
polyreactivity (PSR sort gate): high polyreactivity

QVQLVESGGGLVQAGGSLRLSCAASGIIFTYYAMGWYRPAPGKERELVAAISSGGGSTYYADSVKGRFTISRDNAKITVYLQMNSLKPEDTAVYYCNADYYFVYTYLHDYWGQGTQVTVSS
polyreactivity (PSR sort gate): low polyreactivity

QVQLVESGGGLVQAGGSLRLSCAASGIIFTYYAMGWYRQAPGKERELVASISSSGTSTYYADSVKGRFTISRDYAKNTVYLQMNSLKPEDTAVYYCAADWTGSNGVDYWGQGTQVTVSS
polyreactivity (PSR sort gate): low polyreactivity

QVQLVESGGGLVQAGGSLRLSCAASGIIFVGYAMGWYRQAPGKERELVAAISSGGSTNYADSVKGRFTISRDNAKNTVYLQMNSLKPEDTAVYYCATDSGDGEGDYWGQGTQVTVSS
polyreactivity (PSR sort gate): low polyreactivity

QVQLVESGGGLVQAGGSLRLSCAASGIIFVKYTMGWYRQAPGKERELVAAISRSGGSTYYADSVKGRFTISRDNAKNTVYLQMNSLKPEDTAVYYCNAVSRKVYPGPMDYWGQGTQVTVSS
polyreactivity (PSR sort gate): high polyreactivity

QVQLVESGGGLVQAGGSLRLSCAASGIIFVKYTMGWYRQAPGKERELVAAITRGGSTYYADSVKGRFTISRDNAKNTVYLQMNSLKPEDTAVYYCAAAWYQYFVPGYRGYTYYYWGQGTQVTVSS
polyreactivity (PSR sort gate): high polyreactivity

QVQLVESGGGLVQAGGSLRLSCAASGIIFVSYMGWYRQAPGKERELVAAIRWSGGRTYYADSVKGRFTISRDNAKNTVYLQMNSLKPEDTAVYFCAADALRKPKIALYDYWGQGTQVTVSS
polyreactivity (PSR sort gate): high polyreactivity

QVQLVESGGGLVQAGGSLRLSCAASGIIFVYYVMGWYRQAPGKERELVASIDGSGGSTNYADSVKGRFTISRDNAKNTVYLQMNSLKPEDTAVYYCNADNILYWSTLDYWGQGTQVTVSS
polyreactivity (PSR sort gate): low polyreactivity

QVQLVESGGGLVQAGGSLRLSCAASGIIFWFYAMGWNRQAPGKERELVAAISGDGDSTYYADSVKGRFTISRDNAKNTVYLQMNSLKPEDTAVYYCAAEWDPVFATDEDDYWGQGTQVTVSS
polyreactivity (PSR sort gate): low polyreactivity

QVQLVESGGGLVQAGGSLRLSCAASGIIFWPYAMGWYRQAPGKERELVASISTGGSTHYADSVKGRFTISRDNAKNTVYLQLNSLKPEDTAVYYCNADVGPTYSYDYWGQGTQVTVSS
polyreactivity (PSR sort gate): low polyreactivity

QVQLVESGGGLVQAGGSLRLSCAASGIIFWRYAMGWYRQAPGKERELVASISSSGGRTYYADSVKGRFTISRDNAKNTVYLQMNSLTPEDTAVYYCAARGPYGYDLLYYWGQGTQVTVSS
polyreactivity (PSR sort gate): high polyreactivity

QVQLVESGGGLVQAGGSLRLSCAASGIIFWSYVMGWYRQAPGKERELVAAITFSGGSTYYADSVKGRFTISRDNAKNTVYLQMNSLKPEDTAVYYCAARYKLVRRYDYWGQGTQVTVSS
polyreactivity (PSR sort gate): low polyreactivity

QVQLVESGGGLVQAGGSLRLSCAASGIIFWWYAMGWSRQAPGKERELVAAISGTGGSTYYADSVKGRFTISRDNAKNTVYLQMNSLKPEDTAVYYCAKRASPFWRGYDSWGQGTQVTVSS
polyreactivity (PSR sort gate): low polyreactivity

QVQLVESGGGLVQAGGSLRLSCAASGIIFWWYTRGWYRQAPGKERELVAAISRGGNTNYADSVKGRFTISRDNAKNTVYLQMNSLKPEDTAGYYCAADRHYRFWQDDYWGQGTQVTVSS
polyreactivity (PSR sort gate): high polyreactivity

QVQLVESGGGLVQAGGSLRLSCAASGIIFWYNAMGWYRQAPGKERELVASISTGGRTYYADSVKGRFTISRDNAKNTVYLQMNSLKPEDTAVYYCAAASRVGFLYCYWGQGTQVTVSS
polyreactivity (PSR sort gate): low polyreactivity

QVQLVESGGGLVQAGGSLRLSCAASGIIFWYNTMGWYRQAPGKERELVAAITYGGGSTYYADSVKGRFTISRDNAKNSVYLQMNSLKPEDTAVYYCAVRNWHLIKYLHGYSRYGYWGQGTQVTVSS
polyreactivity (PSR sort gate): low polyreactivity

QVQLVESGGGLVQAGGSLRLSCAASGIIFWYYAMGWYRQAPGKERELVAAINSGGSTNYADSVKGRFTISRDNAKNTVYLQMNSLKQEDTAVYYCAARYRWPIPGTQYEYWGQGTQVTVSS
polyreactivity (PSR sort gate): low polyreactivity

QVQLVESGGGLVQAGGSLRLSCAASGIIFWYYAMGWYRQAPGKERELVAAISSGGGTNYADSVKGRFTISRDNAKNTVSLQMNSLKPEDTAVYYCNADDNPVWEYDYWGQGTQVTVSS
polyreactivity (PSR sort gate): low polyreactivity

QVQLVESGGGLVQAGGSLRLSCAASGIIFYDNALGWYRQAPGKERELVAALDSDGSTDYADSVKGRFTISRDNAKNTVYLQMNSLKPEDTAVYYCAADLVWYASGRYIYRGYDYWGQGTQVTVSS
polyreactivity (PSR sort gate): low polyreactivity

QVQLVESGGGLVQAGGSLRLSCAASGIIFYDYAMGWYRQAPGKERELVAAISRSGGSTYYADSVKGRFTISRDNAKNTVYLQMNSLKPEDTAVYYCAKDRDFSSPPTESGFDYWGQGTQVTVSS
polyreactivity (PSR sort gate): low polyreactivity

QVQLVESGGGLVQAGGSLRLSCAASGIIFYDYAMGWYRQAPGKERELVAAITSNGDNTYYADSVKGRFTISRDNAKNTVYLQMNSLKPEDTAVYYCDVDGSFAADFDNYLEEYGYWGQGTQVTVSS
polyreactivity (PSR sort gate): low polyreactivity

QVQLVESGGGLVQAGGSLRLSCAASGIIFYDYAMGWYRQAPGKERELVAAITSSGGSTYYADSVKGRFTISRDNAKNTVYLQMNSLKPEDTAVYYCADATRGSGRRYDYWGQGTQVTVSS
polyreactivity (PSR sort gate): high polyreactivity

QVQLVESGGGLVQAGGSLRLSCAASGIIFYFYAMGWYRQAPGKERELVADITSGDRTNYADSVKGRFTISRDNAKNTVYLQMNSLKPEDTAVYYCAAGTSKPTPIYGYWGQGTQVTVSS
polyreactivity (PSR sort gate): low polyreactivity

QVQLVESGGGLVQAGGSLRLSCAASGIIFYGYVMGWYRQAPGKERELVATITSSGGSTYYADSVKGRFTISRDNAKNTVYLQMNSLKPEDTAVYYCAAYYYYGAWVRHDYWGQGTQVTVSS
polyreactivity (PSR sort gate): low polyreactivity

QVQLVESGGGLVQAGGSLRLSCAASGIIFYHNAMGWYRKAPGKERELVATIRSSGDGTYYADSVKGRFTISRDNAKNTVYLQMNSLKPEDTAVYYCAAYWAHSYSYSVSRRYYYWGQGTQVTVSS
polyreactivity (PSR sort gate): low polyreactivity

QVQLVESGGGLVQAGGSLRLSCAASGIIFYHYAMGWYRPAPGKEREFVAAITWDGGNTSYADSVKGRFTISRDYAKNTFYLQMNSLIPEDTAVYYCNTDRGPVKVSPLYESWGQGTQVTVSS
polyreactivity (PSR sort gate): low polyreactivity

QVQLVESGGGLVQAGGSLRLSCAASGIIFYHYAMGWYRQAPGKEREFVAAITWDGGNTYYADSVKGRFTISRDNAKNTVYLQMNSLKPEDTAVYYCNTDRGPVKVSPLYESWGQGTQVTVSS
polyreactivity (PSR sort gate): low polyreactivity
